Assay results: US20150258192A1, “COMPOSITIONS AND METHODS FOR PREVENTING OR TREATING CHRONIC LUNG ALLOGRAFT DYSFUNCTION (CLAD) AND IDIOPATHIC PULMONARY FIBROSIS (IPF)” (priority 2014, published 2015)
No end group written: not given here.

Key:
Test in all cases: Kinase Profiling Assay
Type in all cases: biochemical
Conditions in all cases: peptide 100 μM
[1] = molecular target: CDK5/p35(h) (Homo sapiens, UniProt Q00535)
Outline: (§1)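 Radiometric filter-binding format: cationic substrate takes up labeled phosphate from ATP unless the inhibitor peptide blocks the kinase. Substrate bound to an anionic filter, scintillation-counted, normalized to 100% activity control. Duplicates; part of a 266-kinase selectivity panel for MK2 peptides.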

[2] = molecular target: Fgr(h) (Homo sapiens, UniProt P09769)
Outline: as §1

[3] = molecular target: Flt3(h) (Homo sapiens, UniProt P36888)
Outline: as §1

[4] = molecular target: T1, NEK2(h) (Homo sapiens, UniProt P51955)
T1 construct: purchased Millipore
T1 sequence (P51955 1-445): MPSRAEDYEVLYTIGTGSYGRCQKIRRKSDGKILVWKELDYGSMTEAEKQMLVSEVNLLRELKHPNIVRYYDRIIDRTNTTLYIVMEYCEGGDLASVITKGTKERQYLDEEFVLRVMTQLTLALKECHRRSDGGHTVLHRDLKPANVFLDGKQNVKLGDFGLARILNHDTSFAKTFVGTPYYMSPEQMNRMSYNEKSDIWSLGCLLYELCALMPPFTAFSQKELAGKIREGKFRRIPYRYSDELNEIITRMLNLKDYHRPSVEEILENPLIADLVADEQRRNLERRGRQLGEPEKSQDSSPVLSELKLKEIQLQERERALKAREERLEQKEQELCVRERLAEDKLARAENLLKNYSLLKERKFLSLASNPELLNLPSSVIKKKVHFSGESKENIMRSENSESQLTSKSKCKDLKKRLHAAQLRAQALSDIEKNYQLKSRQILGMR
Outline: as §1

[5] = molecular target: T2, TAK1(h) (Homo sapiens, UniProt O43318)
T2 construct: purchased Millipore
T2 sequence (O43318 1-303 limits assumed): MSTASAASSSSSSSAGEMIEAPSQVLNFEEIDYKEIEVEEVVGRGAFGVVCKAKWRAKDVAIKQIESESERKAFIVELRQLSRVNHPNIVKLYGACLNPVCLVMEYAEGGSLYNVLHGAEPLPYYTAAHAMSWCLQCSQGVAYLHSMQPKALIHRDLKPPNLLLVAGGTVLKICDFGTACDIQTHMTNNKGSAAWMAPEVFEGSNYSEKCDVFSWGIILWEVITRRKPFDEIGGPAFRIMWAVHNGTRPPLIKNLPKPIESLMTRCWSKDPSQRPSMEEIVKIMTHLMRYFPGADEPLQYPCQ
Outline: as §1

[6] = molecular target: T3, TAO3(h) (Homo sapiens, UniProt Q9H2K8)
T3 construct: purchased Millipore
T3 sequence (Q9H2K8 1-898): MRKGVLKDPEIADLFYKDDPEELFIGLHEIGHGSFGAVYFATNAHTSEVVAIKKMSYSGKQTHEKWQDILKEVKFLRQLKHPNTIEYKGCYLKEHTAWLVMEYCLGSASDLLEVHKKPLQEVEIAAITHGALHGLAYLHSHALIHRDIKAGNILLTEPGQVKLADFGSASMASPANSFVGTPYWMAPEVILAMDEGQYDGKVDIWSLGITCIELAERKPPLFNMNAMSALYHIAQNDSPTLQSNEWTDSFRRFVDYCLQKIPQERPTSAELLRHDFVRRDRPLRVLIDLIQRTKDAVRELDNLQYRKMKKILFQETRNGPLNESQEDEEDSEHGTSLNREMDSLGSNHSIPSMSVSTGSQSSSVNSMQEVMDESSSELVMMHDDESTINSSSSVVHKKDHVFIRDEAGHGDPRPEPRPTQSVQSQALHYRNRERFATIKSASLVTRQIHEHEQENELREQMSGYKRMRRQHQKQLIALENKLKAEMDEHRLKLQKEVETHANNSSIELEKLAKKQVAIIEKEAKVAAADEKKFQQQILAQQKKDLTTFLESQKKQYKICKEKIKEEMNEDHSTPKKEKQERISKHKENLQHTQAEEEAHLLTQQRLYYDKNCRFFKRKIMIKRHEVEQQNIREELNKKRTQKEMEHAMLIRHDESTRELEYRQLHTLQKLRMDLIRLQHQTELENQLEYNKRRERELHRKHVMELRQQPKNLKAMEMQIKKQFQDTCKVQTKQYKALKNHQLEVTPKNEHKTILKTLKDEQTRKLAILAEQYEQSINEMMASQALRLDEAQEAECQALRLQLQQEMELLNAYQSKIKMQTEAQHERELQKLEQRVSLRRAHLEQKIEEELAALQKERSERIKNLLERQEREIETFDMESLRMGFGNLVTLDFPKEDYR
Outline: as §1

[7] = molecular target: TrkA(h) (Homo sapiens, UniProt P04629)
Sequence of TrkA(h) (P04629 33-796): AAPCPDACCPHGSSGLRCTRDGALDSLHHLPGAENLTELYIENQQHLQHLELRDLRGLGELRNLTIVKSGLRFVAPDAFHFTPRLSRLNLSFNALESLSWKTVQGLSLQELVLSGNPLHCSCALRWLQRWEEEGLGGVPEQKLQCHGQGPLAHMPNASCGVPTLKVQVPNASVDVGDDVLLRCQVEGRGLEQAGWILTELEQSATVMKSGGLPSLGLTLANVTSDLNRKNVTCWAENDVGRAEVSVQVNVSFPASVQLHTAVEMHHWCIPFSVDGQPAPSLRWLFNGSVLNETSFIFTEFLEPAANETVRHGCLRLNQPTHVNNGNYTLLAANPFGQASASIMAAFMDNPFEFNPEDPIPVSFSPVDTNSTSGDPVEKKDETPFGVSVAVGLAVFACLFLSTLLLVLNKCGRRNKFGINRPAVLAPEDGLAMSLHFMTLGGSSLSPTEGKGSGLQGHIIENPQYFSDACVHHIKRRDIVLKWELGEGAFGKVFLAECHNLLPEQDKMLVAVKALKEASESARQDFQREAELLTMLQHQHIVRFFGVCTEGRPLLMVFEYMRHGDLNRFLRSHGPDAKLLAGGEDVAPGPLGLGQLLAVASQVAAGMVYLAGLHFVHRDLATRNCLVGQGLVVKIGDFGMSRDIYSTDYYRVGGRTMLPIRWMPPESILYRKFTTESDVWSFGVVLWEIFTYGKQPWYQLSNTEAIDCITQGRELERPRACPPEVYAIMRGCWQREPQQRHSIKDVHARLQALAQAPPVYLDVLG
Outline: as §1

[8] = molecular target: BTK(h) (Homo sapiens, UniProt Q06187)
Sequence of BTK(h) (Q06187 whole entry): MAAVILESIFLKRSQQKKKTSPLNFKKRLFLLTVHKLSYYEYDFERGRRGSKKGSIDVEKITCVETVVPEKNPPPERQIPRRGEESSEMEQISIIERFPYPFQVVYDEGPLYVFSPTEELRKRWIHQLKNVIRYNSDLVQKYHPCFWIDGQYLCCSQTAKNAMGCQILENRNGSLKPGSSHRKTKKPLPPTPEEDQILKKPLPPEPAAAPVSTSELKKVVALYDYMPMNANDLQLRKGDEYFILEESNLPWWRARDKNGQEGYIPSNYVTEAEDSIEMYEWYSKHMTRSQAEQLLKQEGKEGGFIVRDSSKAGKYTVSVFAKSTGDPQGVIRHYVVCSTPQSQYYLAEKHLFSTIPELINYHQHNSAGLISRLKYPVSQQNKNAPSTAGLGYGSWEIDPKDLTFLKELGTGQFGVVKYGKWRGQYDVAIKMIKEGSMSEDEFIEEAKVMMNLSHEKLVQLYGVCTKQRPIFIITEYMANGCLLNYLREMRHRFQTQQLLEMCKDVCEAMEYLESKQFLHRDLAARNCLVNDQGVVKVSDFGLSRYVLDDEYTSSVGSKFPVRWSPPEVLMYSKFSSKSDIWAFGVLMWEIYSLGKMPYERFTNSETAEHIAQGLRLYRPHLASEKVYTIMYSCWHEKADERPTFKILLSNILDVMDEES
Outline: as §1

Sequence of CDK5/p35(h) (Q00535 whole entry): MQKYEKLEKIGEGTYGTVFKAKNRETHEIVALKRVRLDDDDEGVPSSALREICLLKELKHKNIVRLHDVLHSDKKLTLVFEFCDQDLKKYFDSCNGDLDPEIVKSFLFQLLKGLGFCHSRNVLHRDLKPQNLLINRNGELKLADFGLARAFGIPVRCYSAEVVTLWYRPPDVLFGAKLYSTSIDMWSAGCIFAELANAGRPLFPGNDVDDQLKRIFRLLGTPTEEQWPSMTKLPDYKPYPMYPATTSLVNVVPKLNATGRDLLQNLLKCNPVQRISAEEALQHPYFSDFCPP
Sequence of CDK5/p35(h) (Q15078 whole entry partner): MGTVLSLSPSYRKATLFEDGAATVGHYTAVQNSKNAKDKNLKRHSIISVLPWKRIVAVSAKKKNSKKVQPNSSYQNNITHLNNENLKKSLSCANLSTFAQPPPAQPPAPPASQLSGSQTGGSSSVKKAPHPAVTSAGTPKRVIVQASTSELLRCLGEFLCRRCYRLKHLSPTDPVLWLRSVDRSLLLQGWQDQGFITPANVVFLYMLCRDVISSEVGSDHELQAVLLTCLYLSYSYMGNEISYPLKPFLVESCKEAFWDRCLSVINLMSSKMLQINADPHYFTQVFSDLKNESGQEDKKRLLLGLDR

Row | Sequence | % activity [1] [%] | % activity [2] [%] | % activity [3] [%] | % activity [4] [%] | % activity [5] [%] | % activity [6] [%] | % activity [7] [%] | % activity [8] [%]
1 | FAKLAARLYRKALARQLGVAA [MMI-0300] | 79 | 60 | 84 | 78 | 122 | 77 | 25 | 
2 | HRRIKAWLKKIKALARQLGVAA (Mammal) [MMI-0500] | 59 |  | 17 | 0 |  | 12 | 24 | 18
3 | KAFAKLAARLYRKALARQLGVAA [MMI-0400] | 76 | 47 | 18 | 61 | 177 | 67 | 17 | 94
4 | YARAAARQARAKALARQLGVAA [MMI-0100] |  |  |  |  |  | 45 | 74 | 
5 | YARAAARQARAKALNRQLGVA (Mammal) [MMI-0200] | 92 | 71 | 99 | 97 | 124 |  |  | 100
